Experimental data from patent publication US20120219562A1 (AbbVie / Abbott, published 2012).
Residue numbers refer to the chain shown, from its start.

T1: human interleukin 12 (human, UniProt P29459 23-219; P29460 23-328)
T1 construct: heterodimer of p35 and p40 linked by a disulfide bridge; also called hIL-12; IL-12
T1 sequence (looked up) 1: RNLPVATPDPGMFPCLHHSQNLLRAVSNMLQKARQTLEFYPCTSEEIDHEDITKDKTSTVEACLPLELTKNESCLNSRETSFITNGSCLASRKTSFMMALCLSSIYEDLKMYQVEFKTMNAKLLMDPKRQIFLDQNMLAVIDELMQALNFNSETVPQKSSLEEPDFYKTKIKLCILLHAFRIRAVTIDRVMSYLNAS
T1 sequence (looked up) 2: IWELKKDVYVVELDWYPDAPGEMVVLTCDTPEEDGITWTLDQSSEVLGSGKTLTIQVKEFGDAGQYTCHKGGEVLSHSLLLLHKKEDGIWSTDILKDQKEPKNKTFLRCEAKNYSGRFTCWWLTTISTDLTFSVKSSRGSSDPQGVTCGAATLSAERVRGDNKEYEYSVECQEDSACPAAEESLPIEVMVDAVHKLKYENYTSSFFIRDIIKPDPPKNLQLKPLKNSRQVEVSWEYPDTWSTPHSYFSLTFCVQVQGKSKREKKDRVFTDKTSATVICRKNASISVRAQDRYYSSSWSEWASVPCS

T2: human interleukin 12 (p70 heterodimer of p35 and p40) (human, UniProt P29459 23-219; P29460 23-328)
T2 construct: Recombinant human IL-12; also called hIL-12; IL-12
T2 sequence (looked up) 1: T1 sequence (looked up) 1
T2 sequence (looked up) 2: T1 sequence (looked up) 2

B1: 43-E9 (antibody, V domains shown)
VH: QVQLVQSGGGVVQPGRSLRLSCAASGFTFSSYGMHWVRQAPGKGLEWVAFIRYDGSNKYYADSVKGRFTISRDNSKNTLYLQMKSLRAEDTAVYYCKTHGSHDNWGQGTMVTVSS
VL: SYVLTQPPSVSGTPGQRVTISCSGGRSNIGSNTVKWYQQLPGTAPKLLIYGNDQRPSGVPDRFSGSKSGTSASLAITGVQAEDEADYYCQSYDRGTIPSIEFGTGTKVTVLG
B2: C4 (antibody, V domains shown)
VH: B1 VH
VL: SYVLTQPPSVSGTPGQRVTISCSGGRSNIGSNTVKWYQQLPGTAPKLLIYGNDQRPSGVPDRFSGSKSGTSASLAITGVQAEDEADYYCQSYDRGTPNNSFFGTGTKVTVL
B3: M2 E6 (antibody, V domains shown)
VH: B1 VH
VL: B1 VL with R94T, T96F, I97T, P98K, I100R, E101V
B4: M2 E2 (antibody, V domains shown)
VH: B1 VH
VL: B2 VL with R94N, T96F, P97T, N98G, N99S, S100R, F101V
B5: 43-E3 (antibody, V domains shown)
VH: B1 VH
VL: B1 VL with T96S, I97H, S99A, I100A
B6: M2 D1 (antibody, V domains shown)
VH: B1 VH
VL: B1 VL with R94I, G95R, T96F, I97T, P98G, I100R, E101V
B7: M2 B5 (antibody, V domains shown)
VH: B1 VH
VL: B1 VL with R94S, T96V, I97T, P98G, I100R, E101V
B8: M2 D3 (antibody, V domains shown)
VH: B1 VH
VL: B1 VL with R94N, G95R, T96L, I97T, P98G, I100R, E101V
B9: M2 H5 (antibody, V domains shown)
VH: B1 VH
VL: B1 VL with R94A, T96F, I97T, P98G, I100R, E101V
B10: M2 D6 (antibody, V domains shown)
VH: B1 VH
VL: B1 VL with R94S, T96F, I97T, P98A, I100R, E101V
B11: M2 B1 (antibody, V domains shown)
VH: B1 VH
VL: B1 VL with R94S, T96L, I97T, P98G, I100R, E101V
B12: 136-9 (antibody, V domains shown)
VH: B1 VH with K97T, N104D
VL: B2 VL with S91T, R94I, G95S, T96E, P97S, N98G, N99S, S100R, F101V
B13: M2 D5 (antibody, V domains shown)
VH: B1 VH
VL: B1 VL with R94S, G95S, T96S, I97T, P98G, I100R, E101V
B14: C10 (antibody, V domains shown)
VH: B1 VH
VL: B1 VL with T96N, I97S, S99I, I100P, E101T
B15: M2 A2 (antibody, V domains shown)
VH: B1 VH
VL: B1 VL with T96I, I97H, P98G, I100R, E101V
B16: M2 F1 (antibody, V domains shown)
VH: B1 VH
VL: B1 VL with R94S, G95D, T96V, I97T, P98G, I100R, E101V
B17: B6 (antibody, V domains shown)
VH: B1 VH
VL: B2 VL with R94S, T96S, P97L, N98R, N99R, S100I, F101L
B18: M2 C5 (antibody, V domains shown)
VH: B1 VH
VL: B1 VL with R94T, G95A, T96L, I97T, P98G, I100R, E101V
B19: M2 D4 (antibody, V domains shown)
VH: B1 VH
VL: B1 VL with D93E, R94T, G95S, T96F, I97T, P98G, I100R, E101V
B20: A8 (antibody, V domains shown)
VH: B1 VH
VL: B2 VL with T96K, P97S, N99K, S100M, F101L
B21: C2 (antibody, V domains shown)
VH: B1 VH
VL: B2 VL with T96L, P97N, N98P, N99S, S100A, F101T
B22: M2 A5 (antibody, V domains shown)
VH: B1 VH
VL: B1 VL with R94I, T96S, I97T, P98G, I100R, E101V
B23: M2 D2 (antibody, V domains shown)
VH: B1 VH
VL: B1 VL with R94I, G95R, T96S, I97T, P98G, I100R, E101V
B24: M2 E1 (antibody, V domains shown)
VH: B1 VH
VL: B1 VL with S91T, R94K, T96F, I97T, P98G, I100S, E101V
B25: M2 B3 (antibody, V domains shown)
VH: B1 VH
VL: B1 VL with R94I, T96M, I97T, P98G, I100R, E101V
B26: M2 B6 (antibody, V domains shown)
VH: B1 VH
VL: B2 VL with T96L, P97T, N98A, N99S, S100R, F101V
B27: SEQ ID NO: 477 (Y61, T at L30) (antibody, V domains shown)
VH: B1 VH
VL: B1 VL with S31T, I97H, S99A, I100L, E101L
B28: SEQ ID NO: 480 (Y61, E at L31) (antibody, V domains shown)
VH: B1 VH
VL: B1 VL with N32E, I97H, S99A, I100L, E101L
B29: SEQ ID NO: 483 (Y61, H at L31) (antibody, V domains shown)
VH: B1 VH
VL: B1 VL with N32H, I97H, S99A, I100L, E101L
B30: SEQ ID NO: 478 (Y61, P at L30) (antibody, V domains shown)
VH: B1 VH
VL: B1 VL with S31P, I97H, S99A, I100L, E101L
B31: SEQ ID NO: 481 (Y61, S at L31) (antibody, V domains shown)
VH: B1 VH
VL: B1 VL with N32S, I97H, S99A, I100L, E101L
B32: SEQ ID NO: 484 (Y61, K at L31) (antibody, V domains shown)
VH: B1 VH
VL: B1 VL with N32K, I97H, S99A, I100L, E101L
B33: SEQ ID NO: 488 (Y61, G at L31) (antibody, V domains shown)
VH: B1 VH
VL: B1 VL with N32G, I97H, S99A, I100L, E101L
B34: SEQ ID NO: 487 (Y61, T at L31) (antibody, V domains shown)
VH: B1 VH
VL: B1 VL with N32T, I97H, S99A, I100L, E101L
B35: SEQ ID NO: 482 (Y61, Y at L31) (antibody, V domains shown)
VH: B1 VH
VL: B1 VL with N32Y, I97H, S99A, I100L, E101L
B36: SEQ ID NO: 479 (Y61, D at L31) (antibody, V domains shown)
VH: B1 VH
VL: B1 VL with N32D, I97H, S99A, I100L, E101L
B37: SEQ ID NO: 486 (Y61, Q at L31) (antibody, V domains shown)
VH: B1 VH
VL: B1 VL with N32Q, I97H, S99A, I100L, E101L
B38: SEQ ID NO: 489 (Y61, M at L31) (antibody, V domains shown)
VH: B1 VH
VL: B1 VL with N32M, I97H, S99A, I100L, E101L

Molecular target: T1, human interleukin 12
Assay: SPR (BIAcore)

| koff | Binder |
| --- | --- |
| 0.0008 s⁻¹ | B1 |
| 0.00323 s⁻¹ | B2 |
| 0.00977 s⁻¹ | B3 |
| 0.0477 s⁻¹ | B4 |
| 0.0008 s⁻¹ | B5 |
| 0.0371 s⁻¹ | B6 |
| 0.00838 s⁻¹ | B7 |
| 0.0333 s⁻¹ | B8 |
| 0.0099 s⁻¹ | B9 |
| 0.0501 s⁻¹ | B10 |
| 0.00797 s⁻¹ | B11 |
| 0.0032 s⁻¹ | B12 |
| 0.0518 s⁻¹ | B13 |
| 0.0031 s⁻¹ | B14 |
| 0.04 s⁻¹ | B15 |
| 0.0616 s⁻¹ | B16 |
| 0.00758 s⁻¹ | B17 |
| 0.0471 s⁻¹ | B18 |
| 0.0581 s⁻¹ | B19 |
| 0.00237 s⁻¹ | B20 |
| 0.00223 s⁻¹ | B21 |
| 0.0401 s⁻¹ | B22 |
| 0.0385 s⁻¹ | B23 |
| 0.0532 s⁻¹ | B24 |
| 0.046 s⁻¹ | B25 |
| 0.0281 s⁻¹ | B26 |

Molecular target: T2, human interleukin 12 (p70 heterodimer …)
Assay: SPR (BIAcore), off-rate

| koff | Binder |
| --- | --- |
| 0.000226 s⁻¹ | B27 |
| 0.000384 s⁻¹ | B28 |
| 0.000315 s⁻¹ | B29 |
| 0.00025 s⁻¹ | B30 |
| 0.000392 s⁻¹ | B31 |
| 0.000331 s⁻¹ | B32 |
| 0.000366 s⁻¹ | B33 |
| 0.000309 s⁻¹ | B34 |
| 0.000357 s⁻¹ | B35 |
| 0.00058 s⁻¹ | B36 |
| 0.000292 s⁻¹ | B37 |
| 0.000174 s⁻¹ | B38 |
